Data as given in publication PMC2886353 (The Journal of Cell Biology, 2010).

Target: the molecule itself
Experiment: single-molecule step-wise photobleaching

| Protein | stoichiometry N |
| --- | --- |
| KIF17 (1-795)-3xmCit (domain or fragment, human, UniProt Q9P2E2-1 1-795, looked up) MASEAVKVVVRCRPMNQRERELRCQPVVTVDCARAQCCIQNPGAADEPPKQFTFDGAYHVDHVTEQIYNEIAYPLVEGVTEGYNGTIFAYGQTGSGKSFTMQGLPDPPSQRGIIPRAFEHVFESVQCAENTKFLVRASYLEIYNEDVRDLLGADTKQKLELKEHPEKGVYVKGLSMHTVHSVAQCEHIMETGWKNRSVGYTLMNKDSSRSHSIFTISIEMSAVDERGKDHLRAGKLNLVDLAGSERQSKTGATGERLKEATKINLSLSALGNVISALVDGRCKHVPYRDSKLTRLLQDSLGGNTKTLMVACLSPADNNYDETLSTLRYANRAKNIRNKPRINEDPKDALLREYQEEIKKLKAILTQQMSPSSLSALLSRQVPPDPVQVEEKLLPQPVIQHDVEAEKQLIREEYEERLARLKADYKAEQESRARLEEDITAMRNSYDVRLSTLEENLRKETEAVLQVGVLYKAEVMSRAEFASSAEYPPAFQYETVVKPKVFSTTDTLPSDDVSKTQVSSRFAELPKVEPSKSEISLGSSESSSLEETSVSEAFPGPEEPSNVEVSMPTEESRSRYFLDECLGQEAAGHLLGEQNYLPQEEPQEVPLQGLLGLQDPFAEVEAKLARLSSTVARTDAPQADVPKVPVQVPAPTDLLEPSDARPEAEAADDFPPRPEVDLASEVALEVVRTAEPGVWLEAQAPVALVAQPEPLPATAGVKRESVGMEVAVLTDDPLPVVDQQQVLARLQLLEQQVVGGEQAKNKDLKEKHKRRKRYADERRKQLVAALQNSDEDSGDW | 2 |
| KIF17 (1-369)-3xmCit (domain or fragment, human, UniProt Q9P2E2-1 1-369, looked up) MASEAVKVVVRCRPMNQRERELRCQPVVTVDCARAQCCIQNPGAADEPPKQFTFDGAYHVDHVTEQIYNEIAYPLVEGVTEGYNGTIFAYGQTGSGKSFTMQGLPDPPSQRGIIPRAFEHVFESVQCAENTKFLVRASYLEIYNEDVRDLLGADTKQKLELKEHPEKGVYVKGLSMHTVHSVAQCEHIMETGWKNRSVGYTLMNKDSSRSHSIFTISIEMSAVDERGKDHLRAGKLNLVDLAGSERQSKTGATGERLKEATKINLSLSALGNVISALVDGRCKHVPYRDSKLTRLLQDSLGGNTKTLMVACLSPADNNYDETLSTLRYANRAKNIRNKPRINEDPKDALLREYQEEIKKLKAILTQQMS | 2 |
| KIF17 (1-490)-3xmCit (domain or fragment, human, UniProt Q9P2E2-1 1-490, looked up) MASEAVKVVVRCRPMNQRERELRCQPVVTVDCARAQCCIQNPGAADEPPKQFTFDGAYHVDHVTEQIYNEIAYPLVEGVTEGYNGTIFAYGQTGSGKSFTMQGLPDPPSQRGIIPRAFEHVFESVQCAENTKFLVRASYLEIYNEDVRDLLGADTKQKLELKEHPEKGVYVKGLSMHTVHSVAQCEHIMETGWKNRSVGYTLMNKDSSRSHSIFTISIEMSAVDERGKDHLRAGKLNLVDLAGSERQSKTGATGERLKEATKINLSLSALGNVISALVDGRCKHVPYRDSKLTRLLQDSLGGNTKTLMVACLSPADNNYDETLSTLRYANRAKNIRNKPRINEDPKDALLREYQEEIKKLKAILTQQMSPSSLSALLSRQVPPDPVQVEEKLLPQPVIQHDVEAEKQLIREEYEERLARLKADYKAEQESRARLEEDITAMRNSYDVRLSTLEENLRKETEAVLQVGVLYKAEVMSRAEFASSAEYPPAF | 2 |
| KIF17 (1-738)-3xmCit (domain or fragment, human, UniProt Q9P2E2-1 1-738, looked up) MASEAVKVVVRCRPMNQRERELRCQPVVTVDCARAQCCIQNPGAADEPPKQFTFDGAYHVDHVTEQIYNEIAYPLVEGVTEGYNGTIFAYGQTGSGKSFTMQGLPDPPSQRGIIPRAFEHVFESVQCAENTKFLVRASYLEIYNEDVRDLLGADTKQKLELKEHPEKGVYVKGLSMHTVHSVAQCEHIMETGWKNRSVGYTLMNKDSSRSHSIFTISIEMSAVDERGKDHLRAGKLNLVDLAGSERQSKTGATGERLKEATKINLSLSALGNVISALVDGRCKHVPYRDSKLTRLLQDSLGGNTKTLMVACLSPADNNYDETLSTLRYANRAKNIRNKPRINEDPKDALLREYQEEIKKLKAILTQQMSPSSLSALLSRQVPPDPVQVEEKLLPQPVIQHDVEAEKQLIREEYEERLARLKADYKAEQESRARLEEDITAMRNSYDVRLSTLEENLRKETEAVLQVGVLYKAEVMSRAEFASSAEYPPAFQYETVVKPKVFSTTDTLPSDDVSKTQVSSRFAELPKVEPSKSEISLGSSESSSLEETSVSEAFPGPEEPSNVEVSMPTEESRSRYFLDECLGQEAAGHLLGEQNYLPQEEPQEVPLQGLLGLQDPFAEVEAKLARLSSTVARTDAPQADVPKVPVQVPAPTDLLEPSDARPEAEAADDFPPRPEVDLASEVALEVVRTAEPGVWLEAQAPVALVAQPEPLPATAGVKRESVGMEVAVLTDDPLPVVDQ | 2 |
| KIF17 (1-846)-3xmCit (domain or fragment, human, UniProt Q9P2E2-1 1-846, looked up) MASEAVKVVVRCRPMNQRERELRCQPVVTVDCARAQCCIQNPGAADEPPKQFTFDGAYHVDHVTEQIYNEIAYPLVEGVTEGYNGTIFAYGQTGSGKSFTMQGLPDPPSQRGIIPRAFEHVFESVQCAENTKFLVRASYLEIYNEDVRDLLGADTKQKLELKEHPEKGVYVKGLSMHTVHSVAQCEHIMETGWKNRSVGYTLMNKDSSRSHSIFTISIEMSAVDERGKDHLRAGKLNLVDLAGSERQSKTGATGERLKEATKINLSLSALGNVISALVDGRCKHVPYRDSKLTRLLQDSLGGNTKTLMVACLSPADNNYDETLSTLRYANRAKNIRNKPRINEDPKDALLREYQEEIKKLKAILTQQMSPSSLSALLSRQVPPDPVQVEEKLLPQPVIQHDVEAEKQLIREEYEERLARLKADYKAEQESRARLEEDITAMRNSYDVRLSTLEENLRKETEAVLQVGVLYKAEVMSRAEFASSAEYPPAFQYETVVKPKVFSTTDTLPSDDVSKTQVSSRFAELPKVEPSKSEISLGSSESSSLEETSVSEAFPGPEEPSNVEVSMPTEESRSRYFLDECLGQEAAGHLLGEQNYLPQEEPQEVPLQGLLGLQDPFAEVEAKLARLSSTVARTDAPQADVPKVPVQVPAPTDLLEPSDARPEAEAADDFPPRPEVDLASEVALEVVRTAEPGVWLEAQAPVALVAQPEPLPATAGVKRESVGMEVAVLTDDPLPVVDQQQVLARLQLLEQQVVGGEQAKNKDLKEKHKRRKRYADERRKQLVAALQNSDEDSGDWVLLNVYDSIQEEVRAKSKLLEKMQRKLRAAEVEIKDLQSEFQLEKIDYLAT | 2 |
